# What was measured:
# [1] = system: Patient F (celiac disease); experiment: hyposensitisation of a celiac disease patient with open TG2; assay type: in vivo, human; conditions: subcutaneous, 6 months weekly rising doses, then monthly 1.5 years; then 1 g gluten per day
# Excerpt: Patient F suffered from celiac disease and has been on gluten free diet for 8 years. […] Patient F has been injected subcutaneously a solution containing open TG2, which has been produced according to example 1. Injections have been repeated weekly over a period of six months; the doses have been increased over this period in order to reach the maintenance dose. The application has then been repeated applying the maintenance dose once a month for 1.5 years. Patient F was kept on a strict gluten free diet for this whole hyposensitisation therapy period. Later-on the patient started to consume minor amounts (1 g per day) of gluten in addition to the gluten free diet.
# [2] = enzymatic activity of truncated tissue transglutaminases; assay type: biochemical
# Excerpt: Tissue transglutaminase fragments were produced recombinantly in E. coli as deletion mutants lacking C-terminal amino acids from positions S538 and E447 according to example 1 an methods known to persons skilled in the art. The resulting truncated tissue transglutaminases still were enzymatically active, although the activity was reduced to 5 and 1% respectively compared to the full length enzyme. Transglutaminase 6 fragment lacking the C-terminal amino acids from position G594 was produced accordingly.
Molecule,celiac disease symptoms after hyposensitisation therapy [1],enzymatic activity compared to the full length enzyme [2] [%]
"open TG2: recombinant TG2 stabilized in its open form by reaction with the inhibitor Z-PIMen(OEt)-QPL-OMe (protein, UniProt P21980 2-687, looked up, Z-PIMen(OEt)-QPL-OMe inhibitor adduct) Protein-glutamine …: AEELVLERCDLELETNGRDHHTADLCREKLVVRRGQPFWLTLHFEGRNYEASVDSLTFSVVTGPAPSQEAGTKARFPLRDAVEEGDWTATVVDQQDCTLSLQLTTPANAPIGLYRLSLEASTGYQGSSFVLGHFILLFNAWCPADAVYLDSEEERQEYVLTQQGFIYQGSAKFIKNIPWNFGQFEDGILDICLILLDVNPKFLKNAGRDCSRRSSPVYVGRVVSGMVNCNDDQGVLLGRWDNNYGDGVSPMSWIGSVDILRRWKNHGCQRVKYGQCWVFAAVACTVLRCLGIPTRVVTNYNSAHDQNSNLLIEYFRNEFGEIQGDKSEMIWNFHCWVESWMTRPDLQPGYEGWQALDPTPQEKSEGTYCCGPVPVRAIKEGDLSTKYDAPFVFAEVNADVVDWIQQDDGSVHKSINRSLIVGLKISTKSVGRDEREDITHTYKYPEGSSEEREAFTRANHLNKLAEKEETGMAMRIRVGQSMNMGSDFDVFAHITNNTAEEYVCRLLLCARTVSYNGILGPECGTKYLLNLNLEPFSEKSVPLCILYEKYRDCLTESNLIKVRALLVEPVINSYLLAERDLYLENPEIKIRILGEPKQKRKLVAEVSLQNPLPVALEGCTFTVEGAGLTEEQKTVEIPDPVEAGEEVKVRMDLLPLHMGLHKLVVNFESDKLKAVKGFRNVIIGPA",No celiac disease symptoms could be measured clinically or by biopsy or serology,
"TG2 ΔE447: tissue transglutaminase deletion mutant lacking C-terminal amino acids from position E447 (protein, UniProt P21980 1-446, looked up, fragment) MAEELVLERCDLELETNGRDHHTADLCREKLVVRRGQPFWLTLHFEGRNYEASVDSLTFSVVTGPAPSQEAGTKARFPLRDAVEEGDWTATVVDQQDCTLSLQLTTPANAPIGLYRLSLEASTGYQGSSFVLGHFILLFNAWCPADAVYLDSEEERQEYVLTQQGFIYQGSAKFIKNIPWNFGQFEDGILDICLILLDVNPKFLKNAGRDCSRRSSPVYVGRVVSGMVNCNDDQGVLLGRWDNNYGDGVSPMSWIGSVDILRRWKNHGCQRVKYGQCWVFAAVACTVLRCLGIPTRVVTNYNSAHDQNSNLLIEYFRNEFGEIQGDKSEMIWNFHCWVESWMTRPDLQPGYEGWQALDPTPQEKSEGTYCCGPVPVRAIKEGDLSTKYDAPFVFAEVNADVVDWIQQDDGSVHKSINRSLIVGLKISTKSVGRDEREDITHTYKYP",,1
"TG2 ΔS538: tissue transglutaminase deletion mutant lacking C-terminal amino acids from position S538 (protein, UniProt P21980 1-537, looked up, fragment) MAEELVLERCDLELETNGRDHHTADLCREKLVVRRGQPFWLTLHFEGRNYEASVDSLTFSVVTGPAPSQEAGTKARFPLRDAVEEGDWTATVVDQQDCTLSLQLTTPANAPIGLYRLSLEASTGYQGSSFVLGHFILLFNAWCPADAVYLDSEEERQEYVLTQQGFIYQGSAKFIKNIPWNFGQFEDGILDICLILLDVNPKFLKNAGRDCSRRSSPVYVGRVVSGMVNCNDDQGVLLGRWDNNYGDGVSPMSWIGSVDILRRWKNHGCQRVKYGQCWVFAAVACTVLRCLGIPTRVVTNYNSAHDQNSNLLIEYFRNEFGEIQGDKSEMIWNFHCWVESWMTRPDLQPGYEGWQALDPTPQEKSEGTYCCGPVPVRAIKEGDLSTKYDAPFVFAEVNADVVDWIQQDDGSVHKSINRSLIVGLKISTKSVGRDEREDITHTYKYPEGSSEEREAFTRANHLNKLAEKEETGMAMRIRVGQSMNMGSDFDVFAHITNNTAEEYVCRLLLCARTVSYNGILGPECGTKYLLNLNLEPF",,5

# From patent US8808980B2, “Stabilized open form transglutaminase as a diagnostic indictor for autoimmune diseases” (Zedira GmbH, priority 2009, dated 2014)
